Test results taken from article PMC3587573.

What was measured:
BvPIP1;1 (Beta vulgaris) [1] = target: BvPIP1;1 (Beta vulgaris)
BvPIP1;1 (Beta vulgaris) [2] = target: BvPIP1;1 (Beta vulgaris); remark: listed apart in the source

BvPIP2;1 (natural protein)
maximal inhibition of Pf by cytosolic acidification in oocytes co-injected with BvPIP2;1 and BvPIP1;1 cRNA (1:1 mass ratio); not significantly different from BvPIP2;1 alone (BvPIP1;1 (Beta vulgaris) [1]): 87%

BvPIP2;1 N64H/E65Q (natural protein)
oocyte membrane Pf on co-injection of BvPIP1;1 and BvPIP2;1 N64H/E65Q cRNA, against the mutant alone (BvPIP1;1 (Beta vulgaris) [2]): 4.3 fold

BvPIP2;1 N64I/E65Q (natural protein)
oocyte membrane Pf on co-injection of BvPIP1;1 and BvPIP2;1 N64I/E65Q cRNA, against the mutant alone (BvPIP1;1 (Beta vulgaris) [2]): 4.1 fold
